# Earlier results, collected in PMC6160412.
# Read-outs that look alike come from different tables or passages of the source.
# Target: Neurexin-1β (+S4) (Mus musculus) (UniProt P0DI97)
# Test: SPR
# Neurexin-1β (+S4) (Mus musculus), sequence (P0DI97 47-392): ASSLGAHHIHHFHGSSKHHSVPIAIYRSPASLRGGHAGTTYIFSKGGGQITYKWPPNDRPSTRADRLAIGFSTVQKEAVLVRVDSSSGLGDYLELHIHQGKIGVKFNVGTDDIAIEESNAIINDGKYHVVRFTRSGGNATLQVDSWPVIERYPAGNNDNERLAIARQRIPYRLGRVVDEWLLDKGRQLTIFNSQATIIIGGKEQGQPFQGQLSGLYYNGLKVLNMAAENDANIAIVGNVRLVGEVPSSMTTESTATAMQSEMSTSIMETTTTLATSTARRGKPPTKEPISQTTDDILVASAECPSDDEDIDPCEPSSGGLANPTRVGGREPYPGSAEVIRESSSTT
# Neuroligin-1, sequence (Q99K10 46-843): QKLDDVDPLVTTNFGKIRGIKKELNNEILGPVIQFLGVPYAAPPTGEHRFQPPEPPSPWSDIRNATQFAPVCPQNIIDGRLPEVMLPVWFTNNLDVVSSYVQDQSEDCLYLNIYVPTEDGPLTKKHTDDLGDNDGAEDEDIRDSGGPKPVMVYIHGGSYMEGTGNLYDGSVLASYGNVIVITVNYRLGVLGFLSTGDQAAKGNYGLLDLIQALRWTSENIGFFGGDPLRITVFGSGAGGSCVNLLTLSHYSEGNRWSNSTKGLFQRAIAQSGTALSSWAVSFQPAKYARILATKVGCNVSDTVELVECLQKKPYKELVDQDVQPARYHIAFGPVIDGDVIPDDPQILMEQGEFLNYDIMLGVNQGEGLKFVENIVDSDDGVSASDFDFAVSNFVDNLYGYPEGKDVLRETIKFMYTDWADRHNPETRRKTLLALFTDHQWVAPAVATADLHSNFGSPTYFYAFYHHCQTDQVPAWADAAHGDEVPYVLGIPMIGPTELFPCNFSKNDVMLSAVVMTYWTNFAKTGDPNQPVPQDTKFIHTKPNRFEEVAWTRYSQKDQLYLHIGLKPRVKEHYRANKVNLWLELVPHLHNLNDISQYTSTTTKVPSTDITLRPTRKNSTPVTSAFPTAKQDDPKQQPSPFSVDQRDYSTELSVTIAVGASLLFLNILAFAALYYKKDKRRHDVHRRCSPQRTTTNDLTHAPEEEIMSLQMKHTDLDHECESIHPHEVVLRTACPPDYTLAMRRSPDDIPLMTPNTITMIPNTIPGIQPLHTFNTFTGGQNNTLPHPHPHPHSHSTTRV
Kd [µM],Kd (record 2) [µM],Substance
0.7,2.6,Neuroligin-1 (from UniProt Q99K10)
2.5,9.7,Neuroligin-4 (from UniProt Q8N0W4)
